From patent US20190282704A1

B1: mouse anti IL-31 antibody 15H05 (antibody, V domains shown)
VH: QVQLQQSAAELARPGASVKMSCKTSGYTFTSYTIHWIKQRPGQGLEWIGNINPTSGYTENNQRFKDKTTLTVDRSSNTAYLQLHSLTSEDSAVYFCARWGFKYDGEWSFDVWGAGTTVTVSS
VL: DIQMNQSPSSLSASLGDTITVTCRASQGISIWLSWYQQKPGNIPKVLINKASNLHIGVPPRFSGSGSGTHFTLTITSLQPEDIATYYCLQSQTYPLTFGGGTKLEIN
B2: mouse anti IL-31 antibody 11E12 (antibody, V domains shown)
VH: QVQLQQSGAELVKPGASVKLSCKASGYTFKYYDINWVRQRPEQGLEWIGWIFPGDGGTKYNETFKGKATLTTDKSSSTAYMQLSRLTSEDSAVYFCARGGTSVIRDAMDYWGQGTSVTVSS
VL: DIVLTQSPASLAVSLGQRATISCRASESVDNYGISFMHWYQQKPGQPPKLLIYRASNLESGIPARFSGSGSRTDFTLTINPVETDDVATYYCQQSNKDPLTFGAGTKLELK
B3: 15H05 mouse: canine chimera (antibody)
heavy: QVQLQQSAAELARPGASVKMSCKTSGYTFTSYTIHWIKQRPGQGLEWIGNINPTSGYTENNQRFKDKTTLTVDRSSNTAYLQLHSLTSEDSAVYFCARWGFKYDGEWSFDVWGAGTTVTVSSASTTAPSVFPLAPSCGSTSGSTVALACLVSGYFPEPVTVSWNSGSLTSGVHTFPSVLQSSGLYSLSSMVTVPSSRWPSETFTCNVAHPASKTKVDKPVPKRENGRVPRPPDCPKCPAPEMLGGPSVFIFPPKPKDTLLIARTPEVTCVVVDLDPEDPEVQISWFVDGKQMQTAKTQPREEQFNGTYRVVSVLPIGHQDWLKGKQFTCKVNNKALPSPIERTISKARGQAHQPSVYVLPPSREELSKNTVSLTCLIKDFFPPDIDVEWQSNGQQEPESKYRTTPPQLDEDGSYFLYSKLSVDKSRWQRGDTFICAVMHEALHNHYTQESLSHSPGK
light: DIQMNQSPSSLSASLGDTITVTCRASQGISIWLSWYQQKPGNIPKVLINKASNLHIGVPPRFSGSGSGTHFTLTITSLQPEDIATYYCLQSQTYPLTFGGGTKLEINRNDAQPAVYLFQPSPDQLHTGSASVVCLLNSFYPKDINVKWKVDGVIQDTGIQESVTEQDKDSTYSLSSTLTMSSTEYLSHELYSCEITHKSLPSTLIKSFQRSEC
B4: mouse: feline 15H05 chimera (antibody)
heavy: QVQLQQSAAELARPGASVKMSCKTSGYTFTSYTIHWIKQRPGQGLEWIGNINPTSGYTENNQRFKDKTTLTVDRSSNTAYLQLHSLTSEDSAVYFCARWGFKYDGEWSFDVWGAGTTVTVSSASTTAPSVFPLAPSCGTTSGATVALACLVLGYFPEPVTVSWNSGALTSGVHTFPAVLQASGLYSLSSMVTVPSSRWLSDTFTCNVAHPPSNTKVDKTVRKTDHPPGPKPCDCPKCPPPEAAGAPSIFIFPPKPKDTLSISRTPEVTCLVVDLGPDDSDVQITWFVDNTQVYTAKTSPREEQFNSTYRVVSVLPILHQDWLKGKEFKCKVNSKSLPSPIERTISKAKGQPHEPQVYVLPPAQEELSRNKVSVTCLIKSFHPPDIAVEWEITGQPEPENNYRTTPPQLDSDGTYFVYSKLSVDRSHWQRGNTYTCSVSHEALHSHHTQKSLTQSPGK
light: DIQMNQSPSSLSASLGDTITVTCRASQGISIWLSWYQQKPGNIPKVLINKASNLHIGVPPRFSGSGSGTHFTLTITSLQPEDIATYYCLQSQTYPLTFGGGTKLEINRSDAQPSVFLFQPSLDELHTGSASIVCILNDFYPKEVNVKWKVDGVVQNKGIQESTTEQNSKDSTYSLSSTLTMSSTEYQSHEKFSCEVTHKSLASTLVKSFQRSECQRE
B5: Feline 11E12 1.1 (antibody, V domains shown)
VH: QVLLVQSGAEVKKPGASVKIFCKASGYSFTYYDINWLRQAPEQGLEWMGWIFPGDGGTKYNETFKGRLTLTADTSTNTVYMELSSLRSADTAMYYCARGGTSVIRDAMDYWGQGALVTVSS
VL: EIQMTQSPSSLSASPGDRVTITCRASESVDNYGISFMHWYQQKPGKVPKLLIYRASNLESGVPSRFSGSGSGTDFTLTISSLEPEDAATYYCQQSNKDPLTFGQGT

How the values were obtained:
[1] = biological target: feline IL-31 15H05 mutant (Feline_IL31_15H05 mutant) (feline); experiment: indirect ELISA, coated IL-31; also: test concentration or dose not given here
feline IL-31 15H05 mutant (Feline_IL31_15H05 mutant) (feline), sequence (chain, as listed by the source mutant limits assumed, form in doubt): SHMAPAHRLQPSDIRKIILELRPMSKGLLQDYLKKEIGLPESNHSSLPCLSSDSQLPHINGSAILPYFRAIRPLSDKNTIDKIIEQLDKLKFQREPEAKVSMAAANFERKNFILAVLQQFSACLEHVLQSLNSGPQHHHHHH

[2] = biological target: wildtype feline IL-31 (Feline_IL31_wildtype) (feline); experiment: indirect ELISA, coated IL-31; also: test concentration or dose not given here
wildtype feline IL-31 (Feline_IL31_wildtype) (feline), sequence (chain, as listed by the source limits assumed, form in doubt): as the sequence (chain, as listed by the source mutant limits assumed, form in doubt) above, with A103P, A105D counted along it

[3] = biological target: canine IL-31 (Canine_IL31) (canine); experiment: SPR (Biacore), immobilised IL-31, 1:1 fit
canine IL-31 (Canine_IL31) (canine), sequence (chain, as listed by the source limits assumed, form in doubt): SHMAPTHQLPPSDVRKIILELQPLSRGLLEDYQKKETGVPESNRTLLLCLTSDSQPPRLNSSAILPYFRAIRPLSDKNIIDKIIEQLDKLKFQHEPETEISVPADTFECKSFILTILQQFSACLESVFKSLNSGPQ

[4] = biological target: wildtype feline IL-31 (Feline_IL31_wildtype) (feline); experiment: SPR (Biacore), immobilised IL-31, 1:1 fit
[5] = biological target: canine IL-31 (Canine_IL31) (canine)
[6] = biological target: wildtype feline IL-31 (Feline_IL31_wildtype) (feline)
[7] = biological target: canine IL-31 (Canine_IL31) (canine); experiment: cell-based or functional assay
[8] = biological target: wildtype feline IL-31 (Feline_IL31_wildtype) (feline); experiment: cell-based or functional assay

Binder	Binding (ELISA OD) [1]	Binding (ELISA OD) [2]	Kd [3]	koff [3]	kon [3]	Kd [4]	koff [4]	kon [4]	IC50, inhibition of canine IL-31-induced STAT3 phosphorylation, canine DH82 cells [5]	IC50, inhibition of canine IL-31-induced STAT3 phosphorylation, feline FCWF4 cells [5]	IC50, inhibition of feline IL-31-induced STAT3 phosphorylation, canine DH82 cells [6]	IC50, inhibition of feline IL-31-induced STAT3 phosphorylation, feline FCWF4 cells [6]	IC50 against canine IL-31 (pSTAT3; cell type not clear) [7]	IC50, feline IL-31 signaling on the canine DH82 cell line (pSTAT3) [8]	IC50 against feline IL-31 induced pSTAT3 signaling in feline FCWF4 cells, against mouse: feline 11E12 chimera [8]	potency against feline IL-31 in the feline FCWF assay, against the mouse version [8]
B1	0.05 OD	1.94 OD	0.00487 nM	6.56e-07 s⁻¹	135000 M⁻¹ s⁻¹	0.348 nM	1.69e-05 s⁻¹	48400 M⁻¹ s⁻¹	11.2 µg/mL	25.7 µg/mL	2.7 µg/mL	4.26 µg/mL				
B2	1.33 OD	1.15 OD	0.000763 nM	4.8e-07 s⁻¹	629000 M⁻¹ s⁻¹	0.738 nM	0.000123 s⁻¹	167000 M⁻¹ s⁻¹			2.47 µg/mL	2.01 µg/mL				
B3									12.7 µg/mL			3.11 µg/mL	12.5 µg/ml	0.71 µg/ml		
B4			0.0129 nM	1.62e-07 s⁻¹	12600 M⁻¹ s⁻¹						5.59 µg/mL	3.25 µg/mL	28.6 µg/ml		2 fold	
B5			0.764 nM	0.000141 s⁻¹	185000 M⁻¹ s⁻¹	22.2 nM	0.000444 s⁻¹	20000 M⁻¹ s⁻¹								2 fold
